We go through 44 sequences from the Immune Epitope Database (IEDB).

The target in one experiment is HLA-A*31:01. The experiment is described as follows: IEDB peptide-MHC binding, purified MHC/competitive/radioactivity; filed as Kd, often an IC50 or EC50 that approximates it; ≥ and ≤ were set here for values at or beyond the usual limits of such assays. The following applies: source organism: Vaccinia virus WR.
A further experiment deals with HLA-A*11:01. Described as above. The following applies: source organism: Vaccinia virus WR.
Another experiment concerns the target HLA-A*33:01. The experiment is described as above. The following applies: source organism: Vaccinia virus WR.
A further experiment has as its target HLA-A*30:01. The description is as above.
The next experiment concerns the target HLA-A*03:01. The experiment is described as above.
The next experiment has as its target HLA-A*68:01. Described as above. The following applies: source organism: Vaccinia virus WR.
The target in another experiment is HLA-A*26:01. The experiment is described as above.
A further experiment concerns the target HLA-A*01:01. Described as above.
For a further experiment, the target named is HLA-A*30:02. The description is as above.
A further experiment deals with HLA-A*24:02. The description is as above.
Experiment [1] concerns the target HLA-A*02:01. Nature of the experiment: IEDB peptide-MHC binding, purified MHC/competitive/fluorescence; filed as Kd, often an IC50 or EC50 that approximates it; ≥ and ≤ were set here for values at or beyond the usual limits of such assays.
The target in experiment [2] is HLA-A*02:01. The experiment is described as follows: IEDB peptide-MHC binding, purified MHC/competitive/fluorescence; ≥ and ≤ were set here for values at or beyond the usual limits of such assays.
The target of a further experiment is HLA-A*23:01. The experiment is described as follows: IEDB peptide-MHC binding, purified MHC/competitive/radioactivity; filed as Kd, often an IC50 or EC50 that approximates it; ≥ and ≤ were set here for values at or beyond the usual limits of such assays.
The target in another experiment is HLA-A*29:02. The description is as above.
Setting [3] is: source organism: Vaccinia virus WR.
[4] abbreviates: source organism: Dengue virus 1 Brazil/97-11/1997.
The mark [5] stands for this setting: source organism: Mammarenavirus juninense.
[6] abbreviates: source organism: Dengue virus 3 Martinique/1243/1999.
Where [7] appears, read: source organism: Dengue virus 2 Jamaica/1409/1983.
The mark [8] stands for this setting: source organism: Sudan ebolavirus.
Where [9] appears, read: source organism: Dengue virus 4 Philippines/H241/1956.
The mark [10] stands for this setting: source organism: Zaire ebolavirus.
[11] abbreviates: source organism: Vaccinia virus Copenhagen.
The mark [12] stands for this setting: source organism: Mammarenavirus brazilense.
The mark [13] stands for this setting: source organism: Vaccinia virus.
[14] abbreviates: source organism: Lymphocytic choriomeningitis virus (strain Armstrong).
Setting [15] is: source organism: Dengue virus 2 Peru/IQT2913/1996.
Where [16] appears, read: source organism: Dengue virus 4 Thailand/0348/1991.

For RVLFSIFYK, the Kd – broadly, the equilibrium constant for the complex coming apart – with HLA-A*31:01 is 0.861 nM; in the experiment with HLA-A*11:01 it was 53.2 nM; with HLA-A*33:01, 1860 nM; with HLA-A*30:01 (setting [3]), 118 nM; with HLA-A*03:01 (setting [3]), 5.35 nM; with HLA-A*68:01 it was 120 nM. As to AIKVLRGFK, the Kd amounted to 501 nM in the experiment with HLA-A*30:01 (setting [4]) and 119 nM with HLA-A*03:01 (setting [4]). As for FYQKTGEKS, the Kd with HLA-A*26:01 (setting [5]) was no less than 77900 nM; with HLA-A*01:01 (setting [5]) it was no less than 78100 nM; in the experiment with HLA-A*30:02 (setting [5]), no less than 40.8 µM; with HLA-A*24:02 (setting [5]), no less than 58700 nM.

Turning to RIQQYMFFM, the Kd with HLA-A*02:01 [1] (source organism: Human alphaherpesvirus 1 strain 17) was found to be 81 nM. In the case of LFSGVSWVM, the Kd with HLA-A*24:02 (setting [6]) came out at 105 nM. Regarding YSDRRWCFD, in the experiment with HLA-A*01:01 (setting [4]), the Kd amounted to 1070 nM. As to WTEQYKFQA, the Kd with HLA-A*01:01 (setting [4]) was no less than 20200 nM.

Take AKQPATLRKY: the Kd with HLA-A*30:02 (setting [7]) stood at 5.24 µM.

On to TTPENITTA, for which the IC50 – broadly, the concentration at which inhibition is half-maximal – with HLA-A*02:01 [2] (setting [8]) amounted to 19 µM.

As to MFGGVSWMV, the dissociation constant Kd with HLA-A*23:01 (setting [9]) was 8790 nM. In the experiment with HLA-A*02:01 [2] (setting [10]), SFFLWVIIL registered an IC50 of 14.6 µM. LSLLQLPRD yielded an IC50 with HLA-A*02:01 [2] (setting [8]) of no less than 173 µM. With ITDFAGKTV, the Kd with HLA-A*01:01 (setting [6]) was no less than 20300 nM. CLTEYILWV: in the experiment with HLA-A*02:01 [1] (setting [11]), the dissociation constant Kd came to 10.7 nM. FMSNGEHVP yielded an IC50 with HLA-A*02:01 [2] (setting [3]) of 57.6 µM. That is a double-digit micromolar value. For the sequence HAKSQCRPS, the Kd in the experiment with HLA-A*30:01 (setting [11]) was determined as 854 nM.

Regarding VLPEEQDQNY, the Kd with HLA-A*01:01 (setting [6]) was found to be 11000 nM; with HLA-A*30:02 (setting [6]), 6.87 µM. Consider SWLVHKQWFL, for which the figures for the Kd with HLA-A*24:02 (setting [4]) and with HLA-A*23:01 (setting [4]) were 2700 nM and 173 nM, respectively. Consider EFFECFKYLL, for which the values for the Kd with HLA-A*24:02 (setting [12]), with HLA-A*23:01 (setting [12]) and with HLA-A*29:02 (setting [12]) were 1200 nM, 624 nM and 32.7 nM, respectively. As to LSEKEENMV, the Kd with HLA-A*01:01 (setting [9]) came to 6470 nM. Sequence TNLEYKTLC registered an IC50 with HLA-A*02:01 [2] (setting [13]) of no less than 773 µM. For SFYADPKRFF, the Kd with HLA-A*24:02 (setting [14]) was determined as 709 nM; with HLA-A*23:01 (setting [14]), 126 nM; in the experiment with HLA-A*29:02 (setting [14]), 44.4 nM.

Regarding NVLDEKYNT, in the experiment with HLA-A*02:01 [2] (setting [13]), the IC50 was no less than 319 µM.

As for IMAILCVPNA, the equilibrium dissociation constant (Kd) with HLA-A*30:01 (setting [7]) amounted to 45 nM.

Consider HVTRGAVLMY, for which, in the experiment with HLA-A*26:01 (setting [4]), the Kd was found to be 233 nM.

Take MPQMKKILK: the Kd with HLA-A*02:01 [1] (setting [3]) is 2010 nM.

As to RTRAINKYS, the Kd with HLA-A*30:01 (setting [3]) stood at 12.7 nM.

As for TLLQAAPTL, in the experiment with HLA-A*02:01 [2] (source organism: Mycobacterium tuberculosis), the IC50 turned out to be 0.05 µM.

DWVPTSRTTW: the Kd with HLA-A*24:02 (setting [4]) was found to be 886 nM; in the experiment with HLA-A*23:01 (setting [4]), 6770 nM. Take TGILGSLGL: the IC50 with HLA-A*02:01 [2] (setting [8]) was no less than 92.7 µM. With VVLTGGTGV, the IC50 with HLA-A*02:01 [2] (source organism: Variola virus) turned out to be 3.8 µM.

Regarding RNRVSTPQG, the Kd in the experiment with HLA-A*30:01 (setting [9]) came out at 132 nM. The sequence KIGDFGLATV gave a half-inhibitory concentration (IC50) with HLA-A*02:01 [2] (source organism: Homo sapiens) of 0.04 µM. Turning to KRLEELLPA, the IC50 in the experiment with HLA-A*02:01 [2] (setting [10]) was no less than 683 µM. For the sequence RSQGPFDAV, the IC50 with HLA-A*02:01 [2] (setting [10]) is no less than 163 µM.

With KSHAIYWDK, the Kd in the experiment with HLA-A*30:01 (setting [3]) is 10.5 nM. LTSREVLLL: in the experiment with HLA-A*01:01 (setting [4]), the Kd was found to be 288 nM. Regarding KVKKKYAIG, in the experiment with HLA-A*30:01 (setting [3]), the Kd stood at 1.55 nM. IITASILLWY: the Kd in the experiment with HLA-A*01:01 (setting [7]) came to 93.2 nM. DLCGSVFLV returned an IC50 in the experiment with HLA-A*02:01 [2] (source organism: Hepatitis C virus genotype 1) of 5 µM. This counts as single-digit micromolar.

VLTLATGPVL: the Kd in the experiment with HLA-A*30:01 (setting [9]) turned out to be 1500 nM.

On to IVQPENLEY, for which the figures for the Kd with HLA-A*01:01 (setting [15]) and with HLA-A*30:02 (setting [15]) were 512 nM and 0.11 µM, respectively. Consider MRSRWSRKML, for which the Kd with HLA-A*30:01 (setting [4]) amounted to 175 nM. With RGWGNGCGLF, the Kd with HLA-A*30:02 (setting [16]) is 0.0154 µM; in the experiment with HLA-A*23:01 (setting [16]), 898 nM.
